From patent US10047131B2, “Peptides and combination of peptides for use in immunotherapy against ovarian cancer and other cancers” (immatics biotechnologies GmbH, priority 2015, dated 2018)

Target: HLA-A*02:01 (Homo sapiens, UniProt P04439, D140Y/D185E/D98H/E176V/E277Q/G131W/G231S/I119V/I121R/I166T/I218V/L300P/L318F/N151K/N90K/P208A/P217A/Q86G/Q94H/R138H/R169H/T345S)
Experiment: MHC binding assay (UV-ligand exchange, ELISA of exchange yield)
Settings: binding to HLA-A*02:01, UV-ligand exchange
Description: Candidate peptides for T cell based therapies according to the present invention were further tested for their MHC binding capacity (affinity). The individual peptide-MHC complexes were produced by UV-ligand exchange, where a UV-sensitive peptide is cleaved upon UV-irradiation, and exchanged with the peptide of interest as analyzed. Only peptide candidates that can effectively bind and stabilize the peptide-receptive MHC molecules prevent dissociation of the MHC complexes. To determine the yield of the exchange reaction, an ELISA was performed based on the detection of the light chain (p2m) of stabilized MHC complexes. The assay was performed as generally described in Rodenko et al. (Rodenko et al., 2006).
96 well MAXISorp plates (NUNC) were coated over night with 2 μg/ml streptavidin in PBS at room temperature, washed 4× and blocked for 1 h at 37° C. in 2% BSA containing blocking buffer. […] Peptide-MHC monomers of the UV-exchange reaction were diluted 100 fold in blocking buffer. Samples were incubated for 1h at 37° C., washed four times, incubated with 2 μg/ml HRP conjugated anti-β2m for 1h at 37° C., washed again and detected with TMB solution that is stopped with […]. Absorption was measured at 450 nm. Candidate peptides that show a high exchange yield (preferably higher than 50%, most preferred higher than 75%) are generally preferred for a generation and production of antibodies or fragments thereof, and/or T cell receptors or fragments thereof, as they show sufficient avidity to the MHC molecules and prevent dissociation of the MHC complexes.

Substance	Peptide exchange (MHC class I binding score, peptide exchange yield)
131 (FVPPVTVFPSL; listed as Homo sapiens) [compound 131]	“++” (≥20% = ++)
132 (LLVEQPPLAGV; listed as Homo sapiens) [compound 132]	“+++” (≥50 = +++)
134 (YLQELIFSV; listed as Homo sapiens) [compound 134]	“+++” (≥50 = +++)
135 (ALSEVDFQL; listed as Homo sapiens) [compound 135]	“+++” (≥50 = +++)
138 (YQYPRAILSV; listed as Homo sapiens) [compound 138]	“+++” (≥50 = +++)
143 (LLLDITPEI; listed as Homo sapiens) [compound 143]	“++++” (≥75% = ++++)
145 (FLATSGTLAGI; listed as Homo sapiens) [compound 145]	“++” (≥20% = ++)
147 (SLLEAVSFL; listed as Homo sapiens) [compound 147]	“+++” (≥50 = +++)
149 (NLLELFVQL; listed as Homo sapiens) [compound 149]	“+++” (≥50 = +++)
150 (RLWEEGEELEL; listed as Homo sapiens) [compound 150]	“+++” (≥50 = +++)
151 (KILQQLVTL; listed as Homo sapiens) [compound 151]	“+++” (≥50 = +++)
152 (ILFEDIFDV; listed as Homo sapiens) [compound 152]	“+++” (≥50 = +++)
153 (FLIANVLYL; listed as Homo sapiens) [compound 153]	“+” (≥10% = +)
154 (ALDDGTPAL; listed as Homo sapiens) [compound 154]	“++” (≥20% = ++)
159 (GLVGNPLPSV; listed as Homo sapiens) [compound 159]	“++++” (≥75% = ++++)
164 (ALLPQPKNLTV; listed as Homo sapiens) [compound 164]	“+++” (≥50 = +++)
169 (NLPEYLPFV; listed as Homo sapiens) [compound 169]	“+++” (≥50 = +++)
171 (LLLPLQILL; listed as Homo sapiens) [compound 171]	“+++” (≥50 = +++)
174 (ALAQYLITA; listed as Homo sapiens) [compound 174]	“+++” (≥50 = +++)
175 (YLFENISQL; listed as Homo sapiens) [compound 175]	“+++” (≥50 = +++)
177 (YLLPEEYTSTL; listed as Homo sapiens) [compound 177]	“++++” (≥75% = ++++)
179 (KVLNELYTV; listed as Homo sapiens) [compound 179]	“+++” (≥50 = +++)
180 (FQIDPHSGLVTV; listed as Homo sapiens) [compound 180]	“++” (≥20% = ++)
182 (MLLEAPGIFL; listed as Homo sapiens) [compound 182]	“+++” (≥50 = +++)
183 (FGLDLVTEL; listed as Homo sapiens) [compound 183]	“+++” (≥50 = +++)
185 (FLIDDKGYTL; listed as Homo sapiens) [compound 185]	“++” (≥20% = ++)
188 (GLFPVTPEAV; listed as Homo sapiens) [compound 188]	“+++” (≥50 = +++)
190 (FLSSLTETI; listed as Homo sapiens) [compound 190]	“+++” (≥50 = +++)
191 (LLQEGQALEYV; listed as Homo sapiens) [compound 191]	“++” (≥20% = ++)
192 (KMLDGASFTL; listed as Homo sapiens) [compound 192]	“+++” (≥50 = +++)

Continued, values first:

Peptide exchange (MHC class I binding score, peptide exchange yield)	Substance
“++” (≥20% = ++)	133 (KVLSNIHTV; listed as Homo sapiens) [compound 133]
“+++” (≥50 = +++)	136 (YLADPSNLFVV; listed as Homo sapiens) [compound 136]
“++++” (≥75% = ++++)	137 (TLVLTLPTV; listed as Homo sapiens) [compound 137]
“+++” (≥50 = +++)	139 (SVMEVNSGIYRV; listed as Homo sapiens) [compound 139]
“++” (≥20% = ++)	140 (YMDAPKAAL; listed as Homo sapiens) [compound 140]
“++” (≥20% = ++)	141 (YLDFSNNRL; listed as Homo sapiens) [compound 141]
“+++” (≥50 = +++)	142 (FLFATPVFI; listed as Homo sapiens) [compound 142]
“+++” (≥50 = +++)	144 (YIMEPSIFNTL; listed as Homo sapiens) [compound 144]
“++” (≥20% = ++)	146 (SLATAGDGLIEL; listed as Homo sapiens) [compound 146]
“++” (≥20% = ++)	148 (ALNPEIVSV; listed as Homo sapiens) [compound 148]
“+++” (≥50 = +++)	155 (RVANLHFPSV; listed as Homo sapiens) [compound 155]
“++” (≥20% = ++)	157 (SLNDEVPEV; listed as Homo sapiens) [compound 157]
“+++” (≥50 = +++)	158 (KLFDVDEDGYI; listed as Homo sapiens) [compound 158]
“+++” (≥50 = +++)	160 (FLFDEEIEQI; listed as Homo sapiens) [compound 160]
“+++” (≥50 = +++)	161 (ALLEGVNTV; listed as Homo sapiens) [compound 161]
“+++” (≥50 = +++)	162 (YQQAQVPSV; listed as Homo sapiens) [compound 162]

Peptide exchange (MHC class I binding score, peptide exchange yield)	Substance
“+++” (≥50 = +++)	163 (ALDEMGDLLQL; listed as Homo sapiens) [compound 163]
“+++” (≥50 = +++)	165 (SLLDEIRAV; listed as Homo sapiens) [compound 165]
“+++” (≥50 = +++)	166 (YLNHLEPPV; listed as Homo sapiens) [compound 166]
“+++” (≥50 = +++)	167 (KVLEVTEEFGV; listed as Homo sapiens) [compound 167]
“++++” (≥75% = ++++)	168 (KILDADIQL; listed as Homo sapiens) [compound 168]
“+++” (≥50 = +++)	170 (RLQETLSAA; listed as Homo sapiens) [compound 170]
“++” (≥20% = ++)	172 (VLYSYTIITV; listed as Homo sapiens) [compound 172]
“+++” (≥50 = +++)	173 (LLDSASAGLYL; listed as Homo sapiens) [compound 173]
“++” (≥20% = ++)	176 (YLMEGSYNKVFL; listed as Homo sapiens) [compound 176]
“++++” (≥75% = ++++)	178 (ALTEIAFVV; listed as Homo sapiens) [compound 178]
“+++” (≥50 = +++)	181 (LLWAGTAFQV; listed as Homo sapiens) [compound 181]
“+++” (≥50 = +++)	184 (YLMDINGKMWL; listed as Homo sapiens) [compound 184]
“++” (≥20% = ++)	186 (TLFFQQNAL; listed as Homo sapiens) [compound 186]
“+++” (≥50 = +++)	187 (RQISIRGIVGV; listed as Homo sapiens) [compound 187]
“+++” (≥50 = +++)	189 (ALQRKLPYV; listed as Homo sapiens) [compound 189]
